Source: paper doi:10.1101/2025.06.05.658052 (bioRxiv, 2025)

B1: His-tagged A. baumannii RecA (natural protein, Acinetobacter baumannii, UniProt A3M645 1-349, looked up)
chain: MDENKSKALQAALSQIEKQFGKNTVMRLGDNTVQAVEAVSTGSLTLDIALGIGGLPKGRIIEIYGPESSGKTTMTLQAIAQCQKSGGTCAFIDAEHALDPQYARKLGVDIDNLLVSQPDNGEQALEIADMLVRSGAIDLIVVDSVAALTPKAEIEGEMGDSHMGLQARLMSQALRKITGNAKRSNCMVIFINQIRMKIGVMFGSPETTTGGNALKFYASVRLDIRRIGQVKEGDEIVGSETKVKVVKNKMAPPFKEAIFQILYGKGTNQLGELVDLAVQQDIVQKAGAWYSYQGNKIGQGKNNVIRYFEENTQIAEEIERNIREQLLTTGTNGAVQIEDEEEPDLLLES

Legend:
[1] = test system: EppR (TetR-like error-prone polymerase regulator) (Acinetobacter baumannii ATCC 17978); experiment: EMSA
[2] = molecular target: the molecule itself; experiment: SEC

Molecule | Kd [1] [nM] | binding result [2]
recA regulatory region (promoter + 5'-UTR), 145 bp | 1100 | 
B1 |  | binds
